How the values were obtained:
E. coli ATCC 25922 = assay: Complement-dependent cytotoxicity (CDC) assay; format: cell-based, Escherichia coli; settings: 0.2 uM; 10% normal human serum; 90 minutes
Method: Gram-negative bacteria were cultured overnight in Luria-Bertani (LB) (BD Difco™ Cat. 244620) at 37° C. under constant agitation. The next day, bacteria were grown to log phase until the OD600 reached 0.4 (˜10^8 CFU/mL). Bacteria were washed in DPBS pH 7.4 (Gibco 10010-023) resuspended in RPMI 1640 (Gibco 11-835-055) at 10^6 CFU/mL and […] was added to the wells of a 96-well, TC-treated, polystyrene plate (Fisher 08-772-2C).
The plates were incubated at 37° C. for 90 minutes. At the end of the assay, wells were serially diluted in sterile water and remaining bacteria were cultured overnight at 37° C. on agar plates. Colonies were counted the next day and CFU/mL and % survival normalized to RPMI control was determined using the following equations: CFU/mL=(colonies*dilution factor)/volume and […] normalized to RPMI=([CFU/mL of test condition]/[CFU/mL of molecule in RPMI])*100.

[1] = system: Escherichia coli BW25113 + pUC18-mcr-1; assay: MIC assay (broth microdilution), Ec BW (mcr-1); format: cell-based; settings: assay media RPMI A
Description: An mcr-1 expression plasmid was constructed (GenScript; Piscataway, N.J.) using the pUC18 high copy number plasmid (Yanisch-Perron, et al., 1985). A 1649-bp fragment was synthesized containing, in order from 5′ to 3′: EcoR1 restriction site (5′-GAATTC-3′), a ribosomal binding site (5′-AGGAGG-3′), a 5-bp native start codon upstream sequence (5′-TTCTC-3′) from the mcr-1-bearing plasmid pHNSHP45 (Liu, Y Y, et al., 2015; GenBank Accession #KP347127), the 1626-bp mcr-1 open reading frame with stop codon (“orf00073” of GenBank Accession #KP347127), and finally an Xba1 restriction site sequence (5′-TCTAGA-3′). […] The pUC18-mcr-1 plasmid was transformed into chemically-competent E. coli BW25113 (Coli Genetic Stock Center #7636) as described previously (Chung, et al., PNAS. 1989), recovered for 1 h shaking at 37° C. in Super Optimal broth with Catabolite repression (SOC) media and then aliquots were plated on Luria-Bertani (LB) media containing 100 μg/mL of carbenicillin. Putative transformant colonies were then verified in MIC assays.
(§1) Bacterial strains were stored as glycerol stocks at −80° C. prior to culturing on cation-adjusted Mueller-Hinton agar (MHA; BD cat. no. 211438) at 37° C. Antibacterial activity was assessed against a panel consisting of Escherichia coli, Acinetobacter baumannii, Pseudomonas aeruginosa, and Klebsiella pneumoniae strains (see Table 2).
Briefly, stock solutions of all antibacterial agents were prepared fresh in appropriate solvents (i.e. PBS, pH 7.4, DMSO, DI, etc.). Stock concentrations were made at 50× the highest final assay concentration and serially diluted 2-fold, 8 or 12 times in a 96-well PCR plate (VWR cat. no. 83007-374). Bacterial cell suspensions generated from MHA plate cultures were prepared in 0.85% saline and adjusted to ˜0.1 OD600 nm. […] Later, conjugates 16 and 17, and 20-25 were evaluated in RPMI 1640 medium (+) L-glutamine, (+) sodium bicarbonate, pH 7.4 (“RPMI B”; Gibco, cat. no. 11875-085) as has been described as a more physiologically-relevant media for susceptibility testing of antibacterial compounds. […]

[2] = system: Escherichia coli ATCC BAA-2469; assay: MIC assay (broth microdilution), Ec 2469; format: cell-based; settings: assay media RPMI A
Method: as §1
(§2) Briefly, stock solutions of all antibacterial agents were prepared fresh in appropriate solvents (i.e. PBS, pH 7.4, DMSO, DI, etc.). Stock concentrations were made at 50× the highest final assay concentration and serially diluted 2-fold, 8 or 12 times in a 96-well PCR plate (VWR cat. no. 83007-374). Bacterial cell suspensions generated from MHA plate cultures were prepared in 0.85% saline and adjusted to ˜0.1 OD600 nm. […] Dorschner R A et al., The mammalian ionic environment dictates microbial susceptibility to antimicrobial defense peptides. FASEB J. 20(1):35-42 (2017). Ninety-eight microliters of each cell suspension in MHB were added to test wells in a 96-well assay plate (Costar cat. no. 3370). A Beckman Multimek 96 liquid handling robot was used to dispense 2 μL of each 50× stock compound into the plate containing 98 μL of each strain in MHB (2% final solvent concentration). E. coli strains BW25113 and ATCC 25922 were run in the presence and absence of 50% heat-inactivated fetal bovine serum (FBS; Sigma, cat. no. F4135-100 mL). Plates were mixed by shaking then incubated at 37° C. overnight (16-20 h).

[3] = system: Acinetobacter baumannii ABS075-UW; assay: MIC assay (broth microdilution), Ab ABS075; format: cell-based; settings: assay media RPMI A
Method: as §1, §2

[4] = system: Escherichia coli ATCC 25922; assay: MIC assay (broth microdilution), Ec 25922; format: cell-based; settings: assay media RPMI A
Method: as §1, §2

Escherichia coli BW25113 = assay: MIC assay (broth microdilution), Ec BW; format: cell-based; settings: assay media RPMI A
Method: as §1, §2

[5] = system: Pseudomonas aeruginosa PAO1; assay: MIC assay (broth microdilution), Pa PAO1; format: cell-based; settings: assay media RPMI A
Method: as §1
(§3) Briefly, stock solutions of all antibacterial agents were prepared fresh in appropriate solvents (i.e. PBS, pH 7.4, DMSO, DI, etc.). Stock concentrations were made at 50× the highest final assay concentration and serially diluted 2-fold, 8 or 12 times in a 96-well PCR plate (VWR cat. no. 83007-374). Bacterial cell suspensions generated from MHA plate cultures were prepared in 0.85% saline and adjusted to ˜0.1 OD600 nm. Next, cell suspensions were diluted 1:200 in RPMI containing 5% Luria Broth (LB) to improve bacterial growth (BD Difco, cat. no. 244620) to a concentration of ˜5×10^5 CFU (colony-forming units)/mL. […] Later, conjugates 16 and 17, and 20-25 were evaluated in RPMI 1640 medium (+) L-glutamine, (+) sodium bicarbonate, pH 7.4 (“RPMI B”; Gibco, cat. no. 11875-085) as has been described as a more physiologically-relevant media for susceptibility testing of antibacterial compounds. Dorschner R A et al., The mammalian ionic environment dictates microbial susceptibility to antimicrobial defense peptides. FASEB J. 20(1):35-42 (2017). Ninety-eight microliters of each cell suspension in MHB were added to test wells in a 96-well assay plate (Costar cat. no. 3370). A Beckman Multimek 96 liquid handling robot was used to dispense 2 μL of each 50× stock compound into the plate containing 98 μL of each strain in MHB (2% final solvent concentration). E. coli strains BW25113 and ATCC 25922 were run in the presence and absence of 50% heat-inactivated fetal bovine serum (FBS; Sigma, cat. no. F4135-100 mL). Plates were mixed by shaking then incubated at 37° C. overnight (16-20 h).

recombinant mouse FcRn = molecular target: T1, recombinant mouse FcRn (Mus musculus, UniProt Q61559); assay: Binding of conjugates to FcRn (ELISA), mouse; settings: pH 6.25; 20 μg/mL starting concentration, 2-fold diluted
T1 construct: purchased R&D 6775-FC-050
T1 sequence (Q61559 22-297 limits assumed): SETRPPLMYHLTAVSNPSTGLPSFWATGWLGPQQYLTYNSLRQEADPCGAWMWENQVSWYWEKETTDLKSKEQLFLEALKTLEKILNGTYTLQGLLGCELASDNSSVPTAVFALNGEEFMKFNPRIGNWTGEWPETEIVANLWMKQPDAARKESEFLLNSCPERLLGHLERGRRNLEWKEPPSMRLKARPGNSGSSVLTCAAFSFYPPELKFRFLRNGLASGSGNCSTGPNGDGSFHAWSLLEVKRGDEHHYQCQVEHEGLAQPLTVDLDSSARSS
T1 sequence (P01887 21-119 partner): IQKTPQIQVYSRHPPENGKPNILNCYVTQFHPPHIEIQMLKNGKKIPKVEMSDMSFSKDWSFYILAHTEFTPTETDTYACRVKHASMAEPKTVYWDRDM
Method: 96-well ELISA plates (Fisher, Cat. No. 12-565-136) were coated with 0.25 μg/well of recombinant mouse FcRn (R&D, Cat. No. 6775-FC-050) or recombinant human FcRn (R&D, Cat. No. 8639-FC-050) in carbonate-bicarbonate buffer (Sigma, Cat. No. C34041) at pH 6.25 overnight at 37° C. A pH of 6.25 was maintained during the complete experiment. Blocking was carried out with 5% skim milk in PBS with 0.05% Tween 20. Purified conjugates were added at 20 μg/mL starting concentration and serially 2-fold diluted in blocking buffer. For detection, HRP-labeled secondary anti-mouse IgG-HRP (GE Healthcare, Cat. No. NA931V) or anti-human IgG-HRP (GE Healthcare, Cat. No. NA933V) was used to detect the bound conjugates. Absorbance was measured at 450 nm with a 96-well microplate reader and data were analyzed using GraphPad Prism software, FIGS. 33A-33F.

[6] = system: Acinetobacter baumannii ATCC 19606; assay: MIC assay (broth microdilution), Ab 19606; format: cell-based; settings: assay media RPMI A
Method: as §1, §2

[7] = system: Escherichia coli BW25113 4X-12 (COL-R); assay: MIC assay (broth microdilution), Ec BW 4X-12 (COL-R); format: cell-based; settings: assay media RPMI A
Method: as §1, §3

| Molecule | antibacterial activity in the presence of 10% complement active NHS (E. coli ATCC 25922) | MIC, Ec BW (mcr-1) [1] | MIC, Ec 2469 [2] | MIC Ab AB5075 [3] | MIC, Ec 25922 [4] | MIC, Ec 25922 + FBS ([4]; 50% heat-inactivated FBS) | MIC, Ec BW (Escherichia coli BW25113) | MIC, Ec BW + FBS (Escherichia coli BW25113; 50% heat-inactivated FBS) | MIC Pa PAO1 [5] | binding to mouse FcRn (ELISA) (recombinant mouse FcRn) | MIC Ab 19606 [6] | MIC, Ec BW 4X-12 (COL-R) [7] |
| --- | --- | --- | --- | --- | --- | --- | --- | --- | --- | --- | --- | --- |
| control molecule: "unconjugated control Fc molecule (m-IgG2a type; SEQ ID NO: 2)" (protein, listed as Mus musculus) PRGPTIKPCPPCKCPAPNLLGGPSVFIFPPKIKDVLMISLSPIVTCVVVDVSEDDPDVQISWFVNNVEVHTAQTQTHREDYNSTLRVVSALPIQHQDWMSGKEFKCKVNNKDLPAPIERTISKPKGSVRAPQVYVLPPPEEEMTKKQVTLTCMVTDFMPEDIYVEWTNNGKTELNYKNTEPVLDSDGSYFMYSKLRVEKKNWVERNSYSCSVVHEGLHNHHTTKSFSRTPGK | no antibacterial activity | – | – | – | – | – | – | – | – | – | – | – |
| Conjugate 15 (conjugate, cyclised or stapled) PRGPTIKPCPPCKCPAPNLLGGPSVFIFPPKIKDVLMISLSPIVTCVVVDVSEDDPDVQISWFVNNVEVHTAQTQTHREDYNSTLRVVSALPIQHQDWMSGKEFKCKVNNKDLPAPIERTISKPKGSVRAPQVYVLPPPEEEMTKKQVTLTCMVTDFMPEDIYVEWTNNGKTELNYKNTEPVLDSDGSYFMYSKLRVEKKNWVERNSYSCSVVHEGLHNHHTTKSFSRTPGKHHHHHH | – | >128 mg/L | >128 mg/L | >128 mg/L | >128 mg/L | >128 mg/L | >128 mg/L | >128 mg/L | 16 mg/L | does not interfere with FcRn interaction | >128 mg/L | >128 mg/L |
